Measurements published in the supplement of paper PMC7877785.
± gives the uncertainty stated by the source.

Experiment: self-splicing fitness, log relative to wild type (ln ratio); higher = more splicing; Tetrahymena group I intron in knt gene, E. coli kanamycin selection, DiMSum; sequences stand for … in CUCUCU…GGAGGGAAAAGUUAUCAGGCAUGCACCUGGUAGCUAGUCUUUAAACCAAUAGAUUGCAUCGGUUUAAAAGGCAAGACCGUCAAAUUGCGGGAAAGGGGUCAACAGCCGUUCAGUACCAAGUCUCAGGGGAAACUUUGAGAUGGCCUUGCAAAGGGUAUGGUAAUAAGCUGACGGACAUGGUCCUAACCACGCAGCCAAGUCCUAAGUCAACAGAUCUUCUGUUGAUAUGGAUGCAGUUCACAGACUAAAUGUCGGUCGGGGAAGAUGUAUUCUUCUCAUAAGAUAUAGUCGGACCUCUCCUUAAUGGGAGCUAGCGGAUGAAGUGAUGCAACACUGGAGCCGCUGGGAACUAAUUUGUAUGCGAAAGUAUAUUGAUUAGUUUUGGAGUACUCGUGGUCG
How it was run: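 Library with all eight P1ex-region intron nucleotides randomised, intron inside the knt kanamycin-resistance gene on pET-22b(+), in E. coli BL21(DE3). Cells grew overnight at 37°C or 30°C on LB agar with or without 25 μg/mL kanamycin (plus 100 μg/mL carbenicillin, 50 μM IPTG, 0.2% rhamnose), in six replicate transformations. Pooled colonies were amplicon-sequenced on Illumina HiSeq 2500. DiMSum fitness is the error-weighted combination of wild-type-normalised replicate fold changes, kanamycin versus none.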

| Sequence | self-splicing fitness (ln) (30 °C) | self-splicing fitness (ln) (37 °C) |
| --- | --- | --- |
| UUUUAGCAAUAUUACGGGAG | -0.728 ± 0.16 | -1.79 ± 0.29 |
| UUUUAGCAAUAUUACGGGCA | -1.86 ± 0.39 | -0.575 ± 0.27 |
| UUUUAGCAAUAUUACGGUAU | -2.87 ± 0.32 | -3.11 ± 0.47 |
| UUUUAGCAAUAUUACGUAAG | -0.681 ± 0.13 | -0.523 ± 0.14 |
| UUUUAGCAAUAUUACGUACG | -2.14 ± 0.37 | -0.297 ± 0.33 |
| UUUUAGCAAUAUUACGUCGA | -0.866 ± 0.12 | 0.0877 ± 0.14 |
| UUUUAGCAAUAUUACGUUCG | -0.683 ± 0.11 | -1.34 ± 0.12 |
| UUUUAGCAAUAUUACGUUCU | -3.48 ± 0.37 | -1.17 ± 0.17 |
